Results from patent US20030216563A1 (Scripps Research, published 2003).

Assays:
[1] = biological target: T1, Weel (Schizosaccharomyces pombe, UniProt P07527 1-877); assay: GSH-Sepharose purification of GST fusion expressed in S. pombe, immunoblot with antibodies to Weel
T1 construct: Endogenous protein co-purified from S. pombe cells and detected with antibodies to Weel; also called kinase Weel; native Weel protein
T1 sequence (looked up): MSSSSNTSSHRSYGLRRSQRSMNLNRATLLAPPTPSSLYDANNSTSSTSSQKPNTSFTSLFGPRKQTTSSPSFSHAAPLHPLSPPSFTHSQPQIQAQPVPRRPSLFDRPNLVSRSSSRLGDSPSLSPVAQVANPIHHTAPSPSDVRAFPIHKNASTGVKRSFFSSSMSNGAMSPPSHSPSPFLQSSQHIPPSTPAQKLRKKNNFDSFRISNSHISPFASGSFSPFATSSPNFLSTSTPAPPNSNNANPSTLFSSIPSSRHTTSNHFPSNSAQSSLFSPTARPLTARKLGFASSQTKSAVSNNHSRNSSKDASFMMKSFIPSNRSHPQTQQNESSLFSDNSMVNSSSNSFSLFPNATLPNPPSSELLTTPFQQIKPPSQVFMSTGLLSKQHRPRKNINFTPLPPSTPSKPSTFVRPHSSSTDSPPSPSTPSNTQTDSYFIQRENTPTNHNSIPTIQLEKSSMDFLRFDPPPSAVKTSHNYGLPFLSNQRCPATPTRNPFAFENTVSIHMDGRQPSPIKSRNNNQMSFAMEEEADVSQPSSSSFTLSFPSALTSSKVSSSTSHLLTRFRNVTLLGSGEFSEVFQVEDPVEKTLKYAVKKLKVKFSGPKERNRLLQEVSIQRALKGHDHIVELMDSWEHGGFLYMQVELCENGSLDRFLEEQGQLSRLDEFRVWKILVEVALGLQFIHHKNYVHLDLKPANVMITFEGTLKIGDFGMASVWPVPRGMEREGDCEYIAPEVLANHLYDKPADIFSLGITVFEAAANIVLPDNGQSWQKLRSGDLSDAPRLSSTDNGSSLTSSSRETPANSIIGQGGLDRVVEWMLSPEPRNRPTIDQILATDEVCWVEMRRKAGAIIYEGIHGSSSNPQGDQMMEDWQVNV
Protocol: (§1) FIG. 2D is a photograph of an analysis of proteins which illustrates that Weel interacts with GST:cds1⁺ but not GST:Chk1 in vivo. Strains carrying integrated nmt1:GST:chk1⁺ or nmt1:GST:cds1⁺ constructs were grown in minimal medium (EMM2) without thiamine at 30° C. for 16 hr to induce expression of GST fusion proteins. Cells were lysed and GST fusion proteins purified with GSH-Sepharose. After extensive washing, samples were resolved by 10% SDS-polyacrylamide gel electrophoresis and subjected to immunoblotting with antibodies to Weel, Cdc25 and GST. A ˜110 kDa protein corresponding to Weel was detected in the GST:Cds1 sample, whereas a ˜80 kDa protein corresponding to Cdc25 was detected in the GST:Chk1 sample. The ˜110 kDa protein was not detected in samples prepared from Δweel cells. GST:Cds1 and GST:Chk1 migrate at positions corresponding to ˜82 and ˜80 kDa, respectively.
(§2) As a control, a strain that expressed GST:Chk1 was used. The GST fusion proteins were purified with GSH-Sepharose and analyzed by immunoblotting. Cdc25 (but not Weel) associated with GST:Chk1, whereas Weel (but not Cdc25) associated with GST:Cds1 (FIG. 2D).

[2] = biological target: T2, Cdc25 (Schizosaccharomyces pombe, UniProt P06652 1-596); assay: GSH-Sepharose purification of GST fusion expressed in S. pombe, immunoblot
T2 construct: Endogenous protein co-purified from S. pombe cells and detected with antibodies to Cdc25
T2 sequence (looked up): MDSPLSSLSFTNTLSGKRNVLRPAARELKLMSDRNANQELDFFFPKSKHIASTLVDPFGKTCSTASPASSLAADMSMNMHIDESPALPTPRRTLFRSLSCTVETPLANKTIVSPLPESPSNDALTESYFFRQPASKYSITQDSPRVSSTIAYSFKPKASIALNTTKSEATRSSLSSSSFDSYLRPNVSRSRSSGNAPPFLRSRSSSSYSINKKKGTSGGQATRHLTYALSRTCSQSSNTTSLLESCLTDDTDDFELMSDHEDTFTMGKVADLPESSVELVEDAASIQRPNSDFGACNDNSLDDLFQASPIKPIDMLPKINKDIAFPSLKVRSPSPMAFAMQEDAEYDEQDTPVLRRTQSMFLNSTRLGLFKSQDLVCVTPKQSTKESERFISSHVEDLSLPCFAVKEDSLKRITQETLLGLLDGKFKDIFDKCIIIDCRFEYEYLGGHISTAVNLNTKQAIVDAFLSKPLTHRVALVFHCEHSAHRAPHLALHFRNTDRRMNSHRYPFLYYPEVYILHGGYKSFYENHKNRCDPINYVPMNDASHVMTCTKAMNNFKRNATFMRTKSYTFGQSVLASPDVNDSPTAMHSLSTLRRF
Protocol: as §1, §2

[3] = biological target: T1, Weel; assay: as above
Protocol: as §1, §2

[4] = biological target: T2, Cdc25; assay: GSH-Sepharose purification of GST fusion expressed in S. pombe, immunoblot with antibodies to Cdc25
Protocol: as §1, §2

B1: GST:Chk1 (other, Schizosaccharomyces pombe, UniProt P34208 1-496, looked up)
chain: MAQKLDNFPYHIGREIGTGAFASVRLCYDDNAKIYAVKFVNKKHATSCMNAGVWARRMASEIQLHKLCNGHKNIIHFYNTAENPQWRWVVLEFAQGGDLFDKIEPDVGIDEDVAQFYFAQLMEGISFMHSKGVAHRDLKPENILLDYNGNLKISDFGFASLFSYKGKSRLLNSPVGSPPYAAPEITQQYDGSKVDVWSCGIILFALLLGNTPWDEAISNTGDYLLYKKQCERPSYHPWNLLSPGAYSIITGMLRSDPFKRYSVKHVVQHPWLTSSTPFRTKNGNCADPVALASRLMLKLRIDLDKPRLASSRASQNDSGFSMTQPAFKKNDQKELDRVEVYGALSQPVQLNKNIDVTEILEKDPSLSQFCENEGFIKRLAKKAKNFYEICPPERLTRFYSRASRETIIDHLYDSLRLLAISVTMKYVRNQTILYVNLHDKRKCLLQGVIELTNLGHNLELINFIKRNGDPLEWRKFFKNVVSSIGKPIVLTDVSQN
notes: Expressed in S. pombe from the integrated nmt1:GST:chk1+ construct; Migrates at ~80 kDa; not shown: glutathione-S-transferase
B1: no binding [1]; binds [2].

B2: GST:Cds1 (other, Schizosaccharomyces pombe, UniProt Q09170 1-460, looked up)
chain: MEEPEEATQATQEAPLHVSQNIAKQVVNNENVFMKLVMTRMLDGKTEVIPLTTDVHNGFWRFGRHKSCEVVLNGPRVSNFHFEIYQGHRNDSDESENVVFLHDHSSNGTFLNFERLAKNSRTILSNGDEIRIGLGVPKDEISFLCQVPVKHSRDSQKNMIKSENSHYEIIRTLGSGTFAVVKLAVEVNSGKWYAIKIINKRKILLTSSEKRATEMFQREIDILKSLHHPGVVQCHEIFENDDELFIVMEYVEGGDLMDFLIANGSIDEQDCKPLLKQLLETLLHLHKQGVTHRDIKPENILITNDFHLKISDFGLAKVIHGTGTFLETFCGTMGYLAPEVLKSKNVNLDGGYDDKVDIWSLGCVLYVMLTASIPFASSSQAKCIELISKGAYPIEPLLENEISEEGIDLINRMLEINPEKRISESEALQHPWFYTVSTHEHRTPPSSSEHEATEQLNSSS
notes: Expressed in S. pombe from the integrated nmt1:GST:cds1+ construct; Migrates at ~82 kDa; not shown: glutathione-S-transferase
B2: binds [3]; no binding [4].
